Experimental findings from the supplement of paper PMC9170038 are described below.

The test system of data set [1] is MS2 coat protein. In words: apparent KD of MS2 coat protein, switch ON state; designed switch direction (-1 OFF switch, 1 ON switch): -1; higher = weaker reporter binding. The settings on record: FMN input: 0 or 200 uM; Eterna round: R93 (includes R88 designs). A digest of the protocol: (§1)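 The buffer was 100 mM Tris-HCl pH 7.5 with 80 mM KCl and 4 mM MgCl2, used without or with constant ligand. In it, RNA switches transcribed on-chip from Illumina sequencing clusters were titrated with SNAP-549-labelled MS2 coat protein in twofold steps from 0.7 or 1.5 nM to 3 µM. Apparent KD for each design is the median of its normalised cluster binding-curve fits.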

For data set [2], the system named is MS2 coat protein. In words: apparent KD of MS2 coat protein, switch OFF state (with FMN for OFF switches, without FMN for ON switches); designed switch direction (-1 OFF switch, 1 ON switch): -1; higher = weaker reporter binding. The settings on record: FMN input: 0 or 200 uM; Eterna round: R93 (includes R88 designs). A digest of the protocol: as §1

Regarding “AAGAACUGAGGAUAUACAUGAGGAUCACCCAUGUAAAAGAAAGAAGGGAAAGAGAAAAGUAGAAGGCAGAAGAA [Inamunnifnebu]”, the figures for the “apparent KD of MS2 coat protein” value with MS2 coat protein [1] and with MS2 coat protein [2] were 20.6 nM and 27.8 nM, respectively.
Regarding “AAGAAGCGAGGAUAUACAAAAUAAAAGAAAAGAAAGAAAGAACAUGAGGAUCACCCAUGUAGAAGGCGCAAGAA [Semenkare Nebnuni]”, the figures for the “apparent KD of MS2 coat protein” value in the data set with MS2 coat protein [1] and in the data set on MS2 coat protein [2] were 34.9 nM and 28.5 nM, respectively.
The corresponding values for “AAGAAGCUAGGAUAUACAUGAAAGAAAGAAAAGAAAAGAAAACAUGAGGAUCACCCAUGUAGAAGGAGCUAGAA [EteRNA is fun!]” are 33.1 nM and 32.5 nM.
With “AAGAAGCUAGGAUAUACAUGAGGAUCACCCAUGUAAAAGAAAGAAAGGGAAAAGAAAAGUAGAAGGAGCAAGAA [Netjerikheperre-setpenamun Siamun-meryamun]”, the “apparent KD of MS2 coat protein” value was found to be 12.2 nM in the data set on MS2 coat protein [1] and 18.1 nM with MS2 coat protein [2].
As for “AAGAAGCUAGGAUAUACUAACGAAACUAAUGCAUAGAUAAAACAUGAGGAUCACCCAUGUAGAAGGAGCAGAAU [JR_Exc002_Sub014]”, the figures for the “apparent KD of MS2 coat protein” value in the data set with MS2 coat protein [1] and with MS2 coat protein [2] were 21.6 nM and 20.6 nM, respectively.
The corresponding values for “AAGAAGCUAGGAUAUACUUGGGCAACAAAUAAACUAAUAUAACAUGAGGAUCACCCAUGUAGAAGGAGCAGAAA [JR_Exc002_Sub205]” are 39.7 nM and 39.8 nM.
With “AAGAAGGCAGGAUAUACAUGAGGAUCACCCAUGUAAAAGAAAGAGGGAAAAGAGAAAAGUAGAAGGGCCAAGAA [Setepenre-meryamun Alexander III]”, the figures for the “apparent KD of MS2 coat protein” value in the data set with MS2 coat protein [1] and with MS2 coat protein [2] were 27.8 nM and 75 nM, respectively.
As to “AAGAAGGGAGGAUAUACAAAAUAAAAGAAAAGAAAGAAAGAACAUGAGGAUCACCCAUGUAGAAGGCCUAAGAA [Merneferre Ay I]”, the “apparent KD of MS2 coat protein” value worked out at 23.8 nM in the data set with MS2 coat protein [1] and 8.74 nM in the data set on MS2 coat protein [2].
Consider “AAGAAGGUAGGAUAUACAUGAGGAUCACCCAUGUAAAAGAAAGAAAGGGAAAAGAAAAGUAGAAGGACCAAGAA [Usermaatre Amenemope]”, for which the “apparent KD of MS2 coat protein” value in the data set on MS2 coat protein [1] is 23.5 nM; in the data set on MS2 coat protein [2], 27.4 nM.
For the sequence “AAGAAGGUAGGAUAUACUAAAGAAAUAAAAAGAAAGAAAGAACAUGAGGAUCACCCAUGUAGAAGGGCCAAGAA [Merkare]”, the “apparent KD of MS2 coat protein” value in the data set with MS2 coat protein [1] came to 51 nM; with MS2 coat protein [2], 35.2 nM.
Take “AAGAAGUAAGGAUAUCGAAGACUGUCGAAAAGACAGUCGAACGAGAAGGUACAUGAGGAUCACCCAUGUGAGAA [Opal 24]”: the “apparent KD of MS2 coat protein” value with MS2 coat protein [1] is 25.5 nM; in the data set on MS2 coat protein [2], 41 nM.
Take “AAGAAGUAAGGAUAUGCUGCUCGUCACAAAAGUGAUGAGUAGCAGAAGGUACAUGAGGAUCACCCAUGUAAAUA [Opal 32]”: the “apparent KD of MS2 coat protein” value with MS2 coat protein [1] was found to be 25.3 nM; with MS2 coat protein [2], 17.2 nM.
For “AAGAAGUCAGGAUAUACAAAAUAAAAGAAAAGAAAGAAAGAACAUGAGGAUCACCCAUGUAGAAGGGACAAGAA [Nerikare]”, the “apparent KD of MS2 coat protein” value with MS2 coat protein [1] is 57.8 nM; in the data set on MS2 coat protein [2] it was 37.4 nM.
For the sequence “AAGAAGUCAGGAUAUACAUGAGGAUCACCCAUGUAAAAGAAAGAAAAGGGAAAGAAAAGUAGAAGGGACAAGAA [Menkheperre Thutmose III]”, the “apparent KD of MS2 coat protein” value in the data set with MS2 coat protein [1] was 22.5 nM; with MS2 coat protein [2], 208 nM.
For the sequence “AAGAAGUCAGGAUAUCGAAGACAGACGAAAAGUCUGUCAAACGAGAAGGGACAUGAGGAUCACCCAUGUAAGAA [What have we learned so far? 64% 1]”, the “apparent KD of MS2 coat protein” value with MS2 coat protein [1] is 44.9 nM; in the data set on MS2 coat protein [2], 60.4 nM.
As to “AAGAAGUCAGGAUAUGCCAAAGAUCACGAAAGUGACAAAGGGCAGAAGGGACAUGAGGAUCACCCAUGUAAAGA [Opal 3]”, the results for the “apparent KD of MS2 coat protein” value in the data set with MS2 coat protein [1] and in the data set on MS2 coat protein [2] were 54.7 nM and 62.4 nM, respectively.
The corresponding values for “AAGAAGUCAGGAUAUGCCAAAGAUCACGAAAGUGACUAAGGGCAGAAGGGACAUGAGGAUCACCCAUGUAAAGA [Opal 4]” are 42.9 nM and 52.8 nM.
In the case of “AAGAAGUCAGGAUAUGCCAGAGAUCAAGAAAGUGACGAAUAGCAGAAGGGACAUGAGGAUCACCCAUGUAAAGA [Opal 9]”, the entries for the “apparent KD of MS2 coat protein” value in the data set on MS2 coat protein [1] and with MS2 coat protein [2] were 43.5 nM and 35.9 nM, respectively.
For the sequence “AAGAAGUCAGGAUAUGCUAAAGAAAUAAAAAUAAAUAAAGAACAUGAGGAUCACCCAUGUAGAAGGGACAAGAA [Sewadjkare Hori]”, the “apparent KD of MS2 coat protein” value came to 72.1 nM in the data set with MS2 coat protein [1] and 33.3 nM in the data set with MS2 coat protein [2].
In the case of “AAGAAGUCAGGAUAUGCUGCUCGUCACAAAAGUGAUGAGUAGCAGAAGGGACAUGAGGAUCACCCAUGUAAACA [Opal 34]”, the entries for the “apparent KD of MS2 coat protein” value in the data set on MS2 coat protein [1] and with MS2 coat protein [2] were 37.6 nM and 47.2 nM, respectively.
Take “AAGAAGUCAGGAUAUGGUGCUCGUCACUUGCGUGAUGAGUACCAGAAGGGACAUGAGGAUCACCCAUGUAAAGA [Opal 21]”: the “apparent KD of MS2 coat protein” value in the data set with MS2 coat protein [1] was determined as 47.1 nM; in the data set on MS2 coat protein [2], 60 nM.
For “AAGAAGUGAGGAUAUACAUGAGGAUCACCCAUGUAAAAGAAAGAAGGGAAAGAGAAAAGUAGAAGGCACAAGAA [Usermaatre-setepenamun Osorkon III]”, the “apparent KD of MS2 coat protein” value in the data set with MS2 coat protein [1] worked out at 28.5 nM; with MS2 coat protein [2], 31.3 nM.
Regarding “AAGAAGUGAGGAUAUCGAAAAGAAAAGAAAAGAAAAGAAAACGAGAAGGCACAUGAGGAUCACCCAUGUAAGAA [Setutre Darius I the Great]”, the “apparent KD of MS2 coat protein” value in the data set with MS2 coat protein [1] came out at 28.1 nM; in the data set with MS2 coat protein [2] it was 41 nM.
On to “AAGAAGUGAGGAUAUCGAAGACAAAAAAAAAAAAAGUCGAACGAGAAGGCACAUGAGGAUCACCCAUGUAAGAA [shorter stack]”, for which the “apparent KD of MS2 coat protein” value came to 37.7 nM in the data set on MS2 coat protein [1] and 40.3 nM in the data set with MS2 coat protein [2].
With “AAGAAGUGAGGAUAUCGAAGACAGACGAAAAGUCUGUCAAACGAGAAGGCACAUGAGGAUCACCCAUGUGGAAG [Mat - Exaclusion 4 - Eli mod - D79]”, the “apparent KD of MS2 coat protein” value in the data set on MS2 coat protein [1] worked out at 30.6 nM; with MS2 coat protein [2], 36.8 nM.
Consider “AAGAAGUGAGGAUAUCGAAGACUGUCGAAAAGACAGUCGAACGAGAAGGCACAUGAGGAUCACCCAUGUGAGGA [Marsurpial 65% 2]”, for which the “apparent KD of MS2 coat protein” value with MS2 coat protein [1] stood at 26.2 nM; with MS2 coat protein [2] it was 50.1 nM.
For the sequence “AAGAAGUGAGGAUAUGCUGCUCGUCACUUGCGUGAUGAGUAGCAGAAGGCACAUGAGGAUCACCCAUGUGGGAA [Modifying Chris (69%) Late G segment, early G segment 3]”, the entries for the “apparent KD of MS2 coat protein” value in the data set with MS2 coat protein [1] and in the data set on MS2 coat protein [2] were 89.1 nM and 110 nM, respectively.
In the case of “AAGAAGUGAGGAUAUGCUUGUCGUCACAAAAGUGAUGACGAGCAGAAGGCACAUGAGGAUCACCCAUGUAAAGA [Opal 27]”, the figures for the “apparent KD of MS2 coat protein” value with MS2 coat protein [1] and in the data set with MS2 coat protein [2] were 37.1 nM and 49.9 nM, respectively.
For “AAGAAUGCAGGAUAUACAAAAUAAAAGAAAAGAAAGAAAGAACAUGAGGAUCACCCAUGUAGAAGGGCAAAGAA [Menwadjre Sihathor]”, the “apparent KD of MS2 coat protein” value in the data set with MS2 coat protein [1] amounted to 30 nM; in the data set with MS2 coat protein [2] it was 28.2 nM.
For “AAGAAUGCAGGAUAUACAUGAGGAUCACCCAUGUAAAAGAAAGAGGGAAAAGAGAAAAGUAGAAGGGCAAAGAA [Cleopatra III]” the same measures were 26.1 nM and 37.6 nM.
With “AAGAAUGGAGGAUAUACAUGAGGAUCACCCAUGUAAAAGAAAGAAAAGGGAAAGAAAAGUAGAAGGCCAAAGAA [Sekhaenre/Akhenre Merenptah Siptah]”, the figures for the “apparent KD of MS2 coat protein” value with MS2 coat protein [1] and in the data set with MS2 coat protein [2] were 28.5 nM and 41 nM, respectively.
As for “AAGACGUAAGGAUAUAUUAUGGGACAAUGAAGGAAGAUAAAACAUGAGGAUCACCCAUGUAGAAGGUGCAAAGA [JR_Exclusion2_Sub3]”, the “apparent KD of MS2 coat protein” value stood at 40.3 nM with MS2 coat protein [1] and 32.8 nM in the data set with MS2 coat protein [2].
Take “AAGACUACAGGAUAUACAUGAGGAUCACCCAUGUAACUGACGGAUAGAUGACGGAGAAGUAGAAGGGUAGUCCA [Ruby 39]”: the “apparent KD of MS2 coat protein” value with MS2 coat protein [1] is 36.9 nM; in the data set with MS2 coat protein [2], 46.9 nM.
For the sequence “AAGAGACAUGAGGAUCACCCAUGUGAGGAUAUGACGUAAAUAAAGAAAGAAGAAAUCGUCAGAAGGCACACCAA [55%, Disencluded 2, 4]”, the entries for the “apparent KD of MS2 coat protein” value in the data set on MS2 coat protein [1] and in the data set with MS2 coat protein [2] were 48.4 nM and 75.8 nM, respectively.
With “AAGAGGCUAGGAUAUACAUAUCUGAUGACUCAUCCUAAAACACAUGAGGAUCACCCAUGUAGAAGGAGCGAAUG [Anledi]”, the figures for the “apparent KD of MS2 coat protein” value in the data set with MS2 coat protein [1] and in the data set with MS2 coat protein [2] were 19.2 nM and 16.5 nM, respectively.
Consider “AAGAUGUCAGGAUAUGCUUGUCGUCACAAAAGUGAUGACGAGCAGAAGGGACAUGAGGAUCACCCAUGUAAAGA [JL eternac mod 3]”, for which the results for the “apparent KD of MS2 coat protein” value in the data set on MS2 coat protein [1] and in the data set with MS2 coat protein [2] were 148 nM and 303 nM, respectively.
With “AAGCCACAUGAGGAUCACCCAUGUAAGGAUAUGAACGAAAUAAAAUAAAAAUAAAAGUUCAGAAGGUACAAAAA [Mat - Exclusion 1 - Eli mod - D23]”, the “apparent KD of MS2 coat protein” value in the data set on MS2 coat protein [1] turned out to be 20.2 nM; in the data set with MS2 coat protein [2], 21.9 nM.
The corresponding values for “AAGGGACAUGAGGAUCACCCAUGUCAGGAUAUGCAAAUAACAAACAACAAACAACAAAGCAGAAGGGACAAAAA [Mat - Exclusion 1 - Eli mod - D53]” are 27.9 nM and 24.8 nM.
Regarding “AAGGGACAUGAGGAUCACCCAUGUGAGGAUAUGCUAUGGAAAAUAAAAAAUAAACAUAGCAGAAGGCAUAAAAA [Mat - Exclusion 1 - Eli mod - D37]”, the results for the “apparent KD of MS2 coat protein” value in the data set with MS2 coat protein [1] and with MS2 coat protein [2] were 64.8 nM and 72.3 nM, respectively.
On to “AAGGGACAUGAGGAUCACCCAUGUGAGGAUAUGCUAUGGAAAAUAAAAAUAAAACAUAGCAGAAGGCAUAAAAA [Denovo 9]”, for which the “apparent KD of MS2 coat protein” value in the data set on MS2 coat protein [1] stood at 60.1 nM; in the data set on MS2 coat protein [2] it was 44.8 nM.
